Reference: the DeepSol protein solubility set

assay: soluble on expression in E. coli; label from the status in PepcDB or PDB records

Sequence | soluble on expression in E. coli
MSLEFKGELTFEQELALSDMTSKENGLLHAETGFGKTVLGAALISERKTKTIILVHNKQLLDQWLDRLNCFLTFEEEEAIRYTASGREKVIGYVGQYGGTKKWLSKLVDVVMIQSLFKLENSQSLLDEYEMMIVDECHHVSALMFEKVVAQFRGKYLYGLTATPERKNGHEPIVFQRIGEILHTADKRETDFKRQLQLRFTSFGHLEIEKTKASNFIQLSDWIATDSVRNQMILKDILAQVAEGRNILVLVNRIQQIDVFEKLLKEKEVDDCYIISGKTKVRERTSLLETLEQLDKGFVLLSTGKYIGEGFDLPQLDTLILAAPFSWKNNLIQYAGRIHRNYKDKSLVRIFDYVDIHVPYLEKMFQKRQVAYRKMDYRVIEGEGHHHHHH | not soluble
MSLEHAAEILANRYVRGDALTNPDATKEYVRCKLGSYEREVFALLLLDNQNRLIEFKELFQGTVDAASVYPREVVKAVLEVNAAAVIFAHNHPSGDSTPSQADRRITERLKDTLALVDVRVLDHIVTGDTCTSFAERGWLEGHHHHHH | not soluble
MSLEIKNVSKQIGDRKILDNISLTIDKGSLVVLIGSSGCGKTTTLKLINKLITPTSGEIFINGKSLAKENPIELRRNIGYVIQNNGLFPHLTIKENIELIPRLKKGKDVEKIEKTTLDLLNMVGLDPEIYLNKYPSELSGGQQQRVGFARAFATDAEIILMDEPFSALDPITRTSLQEELFNIQEELKKTIIFVTHDMDEALKIADKICIMNGGKIAQYDTPENILRNPANDFVRDFIGSDRVWNNPDFIKAKDIMIKNPVSVKGARTILQGIEIMRSNKVDSLLVIDKENVLKGIVTFKDIKITNEKSRALSEIMSENPLRVNEDDSLVDILTVMNENSVGFIPVVNSEEKLVGLITRSSLLSILSDQFLDMEVNIFEEGHHHHHH | soluble
MSLEKVGTIGVAIPSATHGFMGGLNFHAQDTIKRLQQVYPQLDFVLATAGNAGKMVNDIEDMVATRNISALVVLPFESEPLTSPVQAVKEAGIWVTVVDRGLSVEGIEDLYVAGDNPGFGRVAGEYFAQHLESGKKIVVLRGIPTTLDNERVEAFTAAIEGSGIEVLDMQHGNWNRDDAFNVMQDFLSKYPQIDAVWAADDDMAIGAMEAIAQAGRTEEMWVMGGAGMKEIIRRIADGDPQLPANVTYPPAQISTAIELTALKLVSSTPVSGRFIIGSQLVTPENAEQFYFPDSEGHHHHHH | soluble
MSLENKENLVVIDLAIAEDSIQKKNIVYDKNGQNHFDVISAFIKSIRGSDPDATLYWLANMVEAGEDPNFIFRRLLISACEDIGLADPNAIVVVQSCCDAFDRVGFPEGLFFLSQASLYLAISPKSNSTKSIFKAMEAIKATNVSLVPNHLKNNASNYLNPHNYQGKWLQQEYLPTDLQGIKFWKPKDSGWEKNKYEDLPKKQKSEGHHHHHH | soluble
MSLENYLEEELIIGGIEINYLYVCKTKLWYFVRGITMEQESDFVDLGKFLHEKSYFGEEKEVQIGSIKIDFIKKRDVIEIHEVKRGKQMEKAHIMQVLYYIYYLNSLGIKSKAILHYPKLKEIKEIELKENNKEEIKRAIKEIEYIKSLKEPPEPIYQKICKNCAYYELCFIEGHHHHHH | soluble
MSLERIEPGPDTIRVLLTTDNHVGAFENDPIRGDDAWKTFDEITTIAKDKDVDMIIQGGDLFHINKPTKKSMYHVMKSLRSNCMGDRPCELELLSDPAQSLNNGFDEINYEDPNLNISIPVFAISGNHDDATGESLLLALDVLAVTGLINNFGKVKNTEAITVSPILLQKGQTKLALYGMSNVRDERLHRLFRDGGVKFQRPNIQTEDWFNLFVIHQNHAAHTYTSSIPESFLPNFLDFILWGHEHECIPYPVHNPETTFDVLQAGSSVATSLAEGEVADKKIFILNIKGKDYSIEPVELKTVRPFVLREIILLKTDLIPGAASKADVIAYLTDEVEKSIERANKQFSEGHHHHHH | soluble
MSLERLIPIIAPQVPEKPLLNDSLGSGIGCSATLGRSTKFEDNFMCLKQDNVLFVGVFDGHAGHESALISAECFTKILPSFDFTNAIHQKNPEKDEENIQKFDFPKVENHLSPRRNHFRNVKTQENQIFGSQKIETKNIKNTQKIELKNSEKIELENSKGSENLNTKLIKTYLRMAFAQVNDELRNRKVKDGTTAVVVCLFENRKGAVAHVGDSLALLVGQTTSKLLTKMHRPSDKDEFYRMRKRNKSVSSDWKVDGKLSVSRSLGDFWCCGGMFDDADVSFFDLNDDALSIVLGCDGLWDYVDEGTVCNVVRELRDPVKAAKLLQDIAFASGSHDSISVIVVNVEPTEGHHHHHH | soluble
MSLESILITGASGFIGSFIVEEALKRKFGVWAGIRPTSSKKYLKNRKIHFLELDFAHPNELRAQLSGHKGTYNKFDYIIHCAGVTKCPDKNTFDYVNYLQTKYFIDTLKALNMVPKQFIYISTLSVFGPVREKDYSPIEAGDVPMPNTAYGLSKLKAELYIQSIPGFPYVIYRPTGVYGPRELDYFLMAKSIRQHVDFSVGFRRQDLTFVYVKDIVQAIFLGIEKKVTRRAYFLTDGKVYNSRVFSDLIQKELGNPFVIHVKCPLIVLKVISLLAEFIATRSGKSSTLNSDKYKIMKQRNWQCDITPAINELGYAPEYDLEKGVRETIDWYKNEGWEGHHHHHH | soluble
MSLESKPVVFHDVPQDHWAFEAISDLGNAGIIAGYGHGIFGLGDDVTREQVAALIYRSMEGIEEKEEYENPYGDLDEHGSTLFLEEILALTEMGIFQGDEQGNFRPKDTLTRAEMAQVIATAFDLEVKAPHSFNDVPANSWAKDAISAVQSNQIAAGIGQGKFAPEMKVTREQYAQFLYNALTNEHAEEGHHHHHH | soluble
MSLESLAAKVVERLNRAESAAELRFCHDELARELRRCLAPEQMKQLAGDVVCVHEAILRRAFFLAERETMKRSVGIRPPAWCWYVMGSIGRCEPTIWTDQDHGILFNCPEEEEAACYEFIRHMAAVGVDMLHEAGYPYCSGYVMATNKRWAQSVRGWEQQLSSYLDSGWPNDIRFLLIAMDMRPLYGEAELAEKARKALFAAVAKRPPLLARMGEHVQFPPVPLGWLGNVQTERWGPYSGAVHMKQSGYVQLTNALKWLACFAHVPTAGTAERRRALEANGVLTAPLSDAVCEALSVYYSIRLKYSTEAGDGREYVLWRALERTEQKQLKQAMRTAKRLQRFVARRVANIHAEGHHHHHH | soluble
MSLESVKCIFERHPDFASKFRPKNRHMKSTYMTVLLGLIKTMCQLPEELTDDDLDEASVAVSYVENGGLRLDWLEKKLAEVKAKKKKVETGKARLQRAEEELQKLNQKCLEMKAFLEKENADVSEANVPLSFEDVVSMIPLPNLHAKNAGYLVNGEVKIVVEINDLEVIGKLDVSEESEETNQPLKKIKLDDNDAVSFDSLNETSPVKESIDVNGFQVLPSEGHHHHHH | soluble
MSLETFTGIRYETAVERVANGGFTDLPRQIEWRKALAAFQSAPIFGHGWNSFAQQTFLINAEQHNIHDNLLSNLFTHSHNIVLQLLAEMEGHHHHHH | not soluble
MSLETGVTNDAIIIGQSAAMSGPAGKLGQQMNLGAKLYFKSINAAGGIYGRKIELKVLDDFYEPEAAERNTKTLINDTKVFALFGYVGTPTSLAALKVANPAGVPFFAPYSGAMALREPFARNVFHVRASYNDETAAIVQQIRTTGHKRVAVVYNDDSYGAAGLAGVKRALALPENKAVALAVEASVPRNSTTVKAALSKVLPSKADSVVVISTYQTTAALVKEALAEGFTGQFYNVSFVGTKELADALGSAGGGVVVSQVMPFPHSMSSALTRDYEKLLKADGVTSFDYGSMEGYIAARIFVEGLKRAGRDLTREKLITALETMGSTDLGGFAVSFSPTNHVASKFVEMTVINSHGQVIREGHHHHHH | soluble
MSLEVVLWDFDGVIFDSMHLKNEGFRALFQKHGNKNQESLKQFEVYHYQSGGISRNEKIQYFYNEILKTPIAQEEVDALALEFGTIIEQKLFDREHLNSEVMAFIDKHYKNHVFHIASAALHSELQVLCEFLGIIKYFKSVEGSPPNKPKIIANIIQKYAYNPGRMLMIGDSVNDYESAQANEVAFLGYNSKVLKNLVGQNGYQGKYLESFKGFDLQNFIKEGHHHHHH | soluble
MSLFKIRMPETVAEGTRLALRAFSLVVAVDERGGIGDGRSIPWNVPEDMKFFRDVTTKLRGKNVKPSPAKRNAVVMGRKTWDSIPPKFRPLPGRLNVVLSSTLTTQHLLDGLPDEEKRNLHADSIVAVNGGLEQALQLLASPNYTPSIETVYCIGGGSVYAEALRPPCVHLLQAIYRTTIRASESSCSVFFRVPESGTEAAAGIEWQRETISEELTSANGNETKYYFEKLIPRNREEEQYLSLVDRIIREGNVKHDRTGVGTLSIFGAQMRFSLRNNRLPLLTTKRVFWRGVCEELLWFLRGETYAKKLSDKGVHIWDDNGSRAFLDSRGLTEYEEMDLGPVYGFQWRHFGAAYTHHDANYDGQGVDQIKAIVETLKTNPDDRRMLFTAWNPSALPRMALPPCHLLAQFYVSNGELSCMLYQRSCDMGLGVPFNIASYALLTILIAKATGLRPGELVHTLGDAHVYSNHVEPCNEQLKRVPRAFPYLVFRREREFLEDYEEGDMEVIDYAPYPPISMKMAV | soluble
MSLFLNRLSLPKDYFIDTFLYYSDQDIAQISSYLPESNVSANVPGFKKNFVLKVFDHKIKPGETLSHVAARYQITSETLISFNEIKDVRNIKPNSVIKVPNMKGIVYIVKKNDSISSIASAYNVPKVDILDSNNLDNEVLFLGQKLFIPGGRLPKDFLKEVLGETFIYPVQGVITSGYGYRPDPFTGVISFHNGIDIANLANTPIKASREGVVVTAGFNAGGYGKYIVISHSNGFQTLYAHLNSFAVKVGKKVSRGAVIGYMGSTGYSTGNHLHFTIFKNGKTENPMKYEGHHHHHH | not soluble
MSLFRIQLRTMSSKTCKSDYPKEFVSFLNSSHSPYHTVHNIKKHLVSNGFKELSERDSWAGHVAQKGKYFVTRNGSSIIAFAVGGKWEPGNPIAITGAHTDSPALRIKPISKRVSEKYLQVGVETYGGAIWHSWFDKDLGVAGRVFVKDAKTGKSIARLVDLNRPLLKIPTLAIHLDRDVNQKFEFNRETQLLPIGGLQEDKTEAKTEKEINNGEFTSIKTIVQRHHAELLGLIAKELAIDTIEDIEDFELILYDHNASTLGGFNDEFVFSGRLDNLTSCFTSMHGLTLAADTEIDRESGIRLMACFDHEEIGSSSAQGADSNFLPNILERLSILKGDGSDQTKPLFHSAILETSAKSFFLSSDVAHAVHPNYANKYESQHKPLLGGGPVIKINANQRYMTNSPGLVLVKRLAEAAKVPLQLFVVANDSPCGSTIGPILASKTGIRTLDLGNPVLSMHSIRETGGSADLEFQIKLFKEFFERYTSIESEIVVEGHHHHHH | soluble
MSLGAKKEGFQTMVITDNKRENFYKNFSFIDNIYAYASLDEAVSIINGIKDYGILIPHGSLVEYLGKERVDKIETKIFGNKKIFEWEADQKKKMELLRKSNIKIPEIFERPEDVDRLVIVKLNGAKGGKGYFLARNKSEVKEGIQKLIESKMIRDENEVIIQEYVVGVPMYFQFFYSDIINRTEIFGIDIRYETNIDGLRRLPFEYMKELKINPTFVVVGNIPAVARESLLPVALEYANNFVRTTKELVPPGMIGPFCLESIITDNSDIVVFEFSGRIVAGTNLYVNGSPYSWLYWDEPMSIGRRIAREIRVANEKDKLSLVVSEGHHHHHH | not soluble
